From the supplement of paper PMC10567573
± gives the standard deviation.

Assay: protein stability index of a GFP-peptide fusion (GPS, HEK-293T) (PSI 1-6); higher = more stable
[1] = treatment: DMSO, c terminus: a fixed tail appended
[2] = treatment: MLN4924 1 uM, 8 h, c terminus: a fixed tail appended
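Further: 24-mer peptide tiles fused after GFP, lentivirally expressed, FACS-sorted into six equal bins by GFP/DsRed ratio, decoded by Illumina sequencing, PSI is the read-weighted mean bin number.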

Sequence	protein stability index [1]	protein stability index [2]	protein stability index (treatment: DMSO, c terminus: native)	protein stability index (treatment: MLN4924 1 uM, 8 h, c terminus: native)
RLCGGKGGFGSMLRALGAQIEKTT [SDE2]	2.59 ± 0.23	2.55 ± 0.45		
GGMALGVAGLAGLIGLAVSKSKS [FIS1]			2.35 ± 0.34	1.78 ± 0.27
PAQVPREVLKVQTHLENPTRYHLQ [TFE3]	3.75 ± 0.43	3.82 ± 0.093		
AVTPAGVVNKYQINGLQAWLLTHL [DHCR7]	2.19 ± 0.23	2.15 ± 0.16		
VFDAEGYVKPQSCIDIVIRHVAPI [MOSPD3]	2.19 ± 0.16	2.19 ± 0.51		
EKLATDTSTFEATSEGTLELQQRN [ZNF232]	5.29 ± 0.22	5.41 ± 0.14		
TMELRNYFSLYCLHQETQLIHVYL [SNX8]	3.41 ± 0.67	2.94 ± 0.72		
KQTGIVFGSFLLLLFSLTQFSVVS [RTN1]	3.08 ± 0.46	3.48 ± 0.38		
FYLPSSPNLSLASEDEEEYESGYA [SMG5]	4.55 ± 0.067	4.59 ± 0.21		
LLSFLLLMDYIGINLATMNSCINP [EDNRA]	2.58 ± 0.73	4.18 ± 0.46		
STVISSMPCLLMELRRDSSESQLA [C18orf25]	3.02 ± 0.13	3.13 ± 0.33		
KLYHQSKGPGAPQYPAGTQGEQLE [SPSB2]	4.72 ± 0.29	5 ± 0.32		
MRELGLLIFFLFIGVILFSSAVYF [KCNA4]	2.91 ± 0.35	2.03 ± 0.64		
RYVFEAVIRWIAHDTEIRKVHMKD [GAN]	2.74 ± 0.84	2.4 ± 0.65		
LVELSAENEKLHQRVEQLTRDLAG [CEBPD]	3.64 ± 0.61	3.73 ± 0.28		
MNDFGIKNMDQVAPVANSYRGTLK [ETS2]	4.06 ± 0.31	4.02 ± 0.26		
QGVEGDHCVTSDPATSPLVLAIPR [TRIM35]	4.43 ± 0.27	4.66 ± 0.22		
VCNKKFKMKHHLTEHMKTHTGLKP [ZBTB22]	3.18 ± 0.14	3.21 ± 0.23		
SRKGELTPLPETGYWRVRLWNGDK [TRIM39]	2.63 ± 0.057	2.58 ± 0.36		
HGEELRVSARSREGRGGRPGSTRP [HAGHL]	4.92 ± 0.2	4.93 ± 0.16		
KLQVRLATKTEPKKLEKYLQKLSA [ELOA2]	2.31 ± 0.41	2.81 ± 0.42		
QAALRAARLRHQELFRLRGIKAQV [NOP53]	2.4 ± 0.19	2.86 ± 0.57		

Sequence	protein stability index [1]	protein stability index [2]	protein stability index (treatment: DMSO, c terminus: native)	protein stability index (treatment: MLN4924 1 uM, 8 h, c terminus: native)
LDSGIHSGATTTAPSLSGKGNPEE [CTNNB1]	5.64 ± 0.29	5.54 ± 0.21		
VLALGLRTDVGITHQHWQQFEPQL [RSAD1]	2.23 ± 0.39	2.35 ± 0.21		
SDSEANGFAERRIDKFGFIVGSQG [TBC1D10A]	4.14 ± 0.35	4.07 ± 0.34		
VAVLEQEIKDKDQLVLRTKEAFDT [SASS6]	4.57 ± 0.21	4.67 ± 0.41		
VEILMILFAFMLVYPKEFHLNRGN [PPEF2]		3.58 ± 0.62		
VTLELSQLSMLPHLADLVSYSIQK [VDR]	2.86 ± 0.52	2.91 ± 0.26		
TPAPPLWIGLFLVATGSQQSLAQP	2.57 ± 0.23	2.94 ± 0.74		
NHSLARHADILAAVETRLSLLNMT [FBXO28]	2.53 ± 0.13	2.71 ± 0.19		
EAFWAEWKDLTLSTRPEEGCSLHE [TCAP]	3.98 ± 0.18	4 ± 0.2		
KIENGYPLHAPEAYFPYFKKHNVT [CDC14A]	2.2 ± 0.19	2.32 ± 0.18		
SNFNYFYHRETEGEEQSQYMHVGS [KCNA3]	3.89 ± 0.08	3.88 ± 0.48		
VSAQRERPRRRDGPEHATRLNGTA [DVL3]	4.7 ± 0.17	4.81 ± 0.21		
GHLSKDVDENDSHEGEDQFLSLEA [DLC1]	5.63 ± 0.17	5.54 ± 0.077		
SFVCWSRGFMEMNGRGELVESLKR [AUP1]	2.36 ± 0.51	2.2 ± 0.27		
EGRGGRPGSTRPHRSACSSAAVRG [HAGHL]	4.52 ± 0.17	4.58 ± 0.19		
AISVVGVSAGGHTLSRPPPAQVPR [TFE3]	3.38 ± 0.24	3.35 ± 0.24		
SGTDAEETILNAFKMLDPDGKGKI [MYL5]	4.51 ± 0.18	4.31 ± 0.17		
SNCCFTFSGHFLCTSSWDKNLKIW [WDR88]	2.22 ± 0.97	2.3 ± 0.4		
EEKSFWEMEKSFREEEKTFWKKYR [CCDC70]	4.18 ± 0.68	4.232 ± 0.013		
KAPYLCEATHEPAAARIRAQVPDT	4.65 ± 0.4	4.2 ± 0.68		
AASSYSFSDLNSTRGDADMYDLPK [EMD]	4.43 ± 0.23	4.53 ± 0.26		
EPIILPCSHNLCQACARNILVQTP [TRIM9]	2.45 ± 0.18	2.68 ± 0.23		

Sequence	protein stability index [1]	protein stability index [2]	protein stability index (treatment: DMSO, c terminus: native)	protein stability index (treatment: MLN4924 1 uM, 8 h, c terminus: native)
SGLEKEVQRLTSRAARDYKIQNHG [FCHSD1]	3.89 ± 0.16	3.61 ± 0.38		
FATFCGGLAANGALQRLDLRNNQI [LRRC45]	2.36 ± 0.19	2.37 ± 0.23		
EEVDQMFQFASIDVAGNLDYKALS [MYL5]	4.27 ± 0.3	4.39 ± 0.27		
FHLAPARAGHHPNQYATCRLCGRQ [ZBED2]	2.58 ± 0.41	3.14 ± 0.68		
VNLQVATYSKFQPQSPDFLDITNP [UFD1]	2.53 ± 0.23	2.57 ± 0.27		
DKAVEIEELTYIIKQDINSLNKQI [STX5]	2.91 ± 0.14	3.12 ± 0.56		
GGEEEDEDENIEVVYSKAASVPKV [EIF5]	5.18 ± 0.14	4.93 ± 0.47		
VGTGTFGRVHLVKEKTAKHFFALK [PRKX]	2.46 ± 0.15	2.85 ± 0.17		
TNPDLIIVCAQSSQSLWNRLSVLL [SMG5]	2.59 ± 0.54	2.49 ± 0.64		
RRSSSKCIHDHHCGSQLSSTKGSR [NETO1]	3.74 ± 0.33	3.92 ± 0.36		
PEAISPDLVKKIRDFHRKILTLPE [TRIM15]	2.51 ± 0.17	2.68 ± 0.37		
FASGFKRAFKIKDFANTIPGHGGI [CDS1]	2.65 ± 0.43	2.47 ± 0.66		
QEDSGLRDHSVRVLISNHVTPFDH [AUP1]	3.9 ± 0.12	3.67 ± 0.29		
PFGILSPNVLCSMSGKSPVESSLN [FBXO34]	2.88 ± 0.33	2.64 ± 0.37		
VTGHTNIVDFLTHHAQTSKTERIN [FEM1C]	3.45 ± 0.11	3.54 ± 0.19		
LLWAKFTNSDTPTSFNHMDSDKLS [TOR1AIP2]	2.45 ± 0.3	2.54 ± 0.35		
SDSVIMTGSYNNFFRMFDRNTKRD [PPP2R2B]	3.55 ± 0.18	3.63 ± 0.19		
DKNISPRENILVSLGAVGEGFHNY [SCD]	3.23 ± 0.49	3.18 ± 0.24		
LRETKRKYESVLQLGRALTAHLYS [ARFIP2]	2.3 ± 0.5	2.15 ± 0.32		
ELTSVTAWMLCKLLDKAGVPPGVV [ALDH8A1]	2.98 ± 0.42	2.69 ± 0.52		
LRTLRDFPAEERARVLDRRGCSRV [ANKRD9]	3.91 ± 0.32	4.06 ± 0.29		
HIKFPIDYPYSPPTFRFLTKMWHP [UBE2R2]	2.3 ± 0.32	2.24 ± 0.39		
